# Data: US20250197501A1
# T1: recombinant human B7-H3-mFc protein (human) (UniProt Q5ZPR3)
# T1 sequence: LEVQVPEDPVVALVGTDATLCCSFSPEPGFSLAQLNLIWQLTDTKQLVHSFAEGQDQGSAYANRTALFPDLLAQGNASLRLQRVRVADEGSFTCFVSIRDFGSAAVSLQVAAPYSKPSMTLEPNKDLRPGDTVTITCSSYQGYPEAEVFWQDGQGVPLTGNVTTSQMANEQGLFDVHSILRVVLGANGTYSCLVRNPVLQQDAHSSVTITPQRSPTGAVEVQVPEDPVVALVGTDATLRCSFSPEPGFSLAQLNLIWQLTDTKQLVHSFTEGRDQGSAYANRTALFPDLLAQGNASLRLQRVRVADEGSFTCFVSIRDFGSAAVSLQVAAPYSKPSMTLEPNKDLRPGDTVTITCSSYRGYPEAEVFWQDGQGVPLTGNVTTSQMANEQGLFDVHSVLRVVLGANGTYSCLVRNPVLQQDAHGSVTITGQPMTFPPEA
# Experiments:
# [1] = molecular target: T1, recombinant human B7-H3-mFc protein (human); assay: competitive binding ELISA on B7-H3 protein, no competitor
# [2] = molecular target: T1, recombinant human B7-H3-mFc protein (human); assay: competitive binding ELISA on B7-H3 protein, competitor mAb 91H06
# [3] = molecular target: T1, recombinant human B7-H3-mFc protein (human); assay: competitive binding ELISA on B7-H3 protein, competitor Ifinatamab (4 µg/mL)
# [4] = molecular target: recombinant cynomolgus monkey B7-H3 protein (cynomolgus monkey); assay: ELISA, plate coated with cynomolgus monkey B7-H3
# [5] = molecular target: recombinant cynomolgus monkey B7-H3 protein (cynomolgus monkey); assay: SPR (Biacore), antibody captured on anti-human IgG chip, B7-H3 protein injected
Binder,EC50 [1],EC50 [2],EC50 [3],EC50 [4],Kd [5]
"Ifinatamab-biotin (antibody, INN chains, looked up, V domains shown, biotin) VH: QVQLVQSGAEVKKPGSSVKVSCKASGYTFTNYVMHWVRQAPGQGLEWMGYINPYNDDVKYNEKFKGRVTITADESTSTAYMELSSLRSEDTAVYYCARWGYYGSPLYYFDYWGQGTLVTVSS VL: EIVLTQSPATLSLSPGERATLSCRASSRLIYMHWYQQKPGQAPRPLIYATSNLASGIPARFSGSGSGTDFTLTISSLEPEDFAVYYCQQWNSNPPTFGQGTKVEIK",0.0331 nM,0.0346 nM,1.78 nM,,
"mAb 91H06 (antibody, V domains shown) VH: EVQLVESGGGLVQPGGSLRLSCAASGFTFSDYGMGWVRQAPGKGLEWVSSISWDSSSKEYADSVKGRFTISRDNSKNTLYLQMNSLRAEDTAVYYCARAWIAIIGGGAHFDYWGQGTLVTVSS VL: DIQMTQSPSSLSASVGDRVTITCRASQSVSSHLAWYQQKPGKAPKLLIYLTSSLQSGVPSRFSGSGSGTDFTLTISSLQPEDFATYYCMQSKSLPFTFGQGTKVEIKR",,,,0.0244 nM,0.471 nM
